Assay results reported in patent US20070065447A1 (Novo Nordisk, published 2007).
Bridge positions count the residues as written; N and C are the ends. Ends that are not written are not given here.

T1: cyclic peptide X253 (Ln-5 residues 425-444) (human, Cys-Cys disulfide bond (cyclic peptide))
T1 construct: Used unpurified
T1 peptide: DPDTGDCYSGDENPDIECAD

T2: cyclic peptide X254 (Ln-5 residues 494-516, +E) (human, Cys-Cys disulfide bond (cyclic peptide))
T2 peptide: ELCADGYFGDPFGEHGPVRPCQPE

T3: cyclic peptide X255 (R+, Ln-5 residues 518-537) (human, Cys-Cys disulfide bond (cyclic peptide))
T3 peptide: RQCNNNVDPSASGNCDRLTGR

T4: cyclic peptide X256 (Ln-5 residues 539-552 + R) (human, disulfide 3-12 (inferred))
T4 peptide: LKCIHNTAGIYCDQR

T5: GST-γ2III-7 (a.a. residues 461-653) (human, UniProt Q13753 461-653)
T5 construct: Recombinant GST-γ2III-chain fragment; not shown: glutathione S-transferase (GST) fusion partner
T5 sequence: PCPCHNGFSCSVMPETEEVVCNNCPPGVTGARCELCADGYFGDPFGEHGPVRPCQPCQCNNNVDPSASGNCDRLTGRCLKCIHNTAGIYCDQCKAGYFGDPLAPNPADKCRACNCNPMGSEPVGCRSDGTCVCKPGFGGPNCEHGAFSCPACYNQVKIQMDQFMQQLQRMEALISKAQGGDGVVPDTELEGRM

T6: GST-γ2III-20 (a.a. residues 461-534) (human, UniProt Q13753 461-534)
T6 construct: Recombinant GST-γ2III-chain fragment, used in the second set of experiments only; also called GST-γIII-20; not shown: glutathione S-transferase (GST) fusion partner
T6 sequence: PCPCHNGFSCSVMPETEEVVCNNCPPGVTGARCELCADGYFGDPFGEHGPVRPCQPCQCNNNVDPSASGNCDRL

T7: cyclic peptide X252 (Ln-5 residues 394-415 + R) (human, Cys-Cys disulfide bond (cyclic peptide))
T7 construct: Used unpurified
T7 peptide: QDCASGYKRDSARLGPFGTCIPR

B1: mAb 4G1 (antibody, V domains shown)
VH: EVKLEESGGGLVQPGGSMKLSCVASGFTFSNFWMNWVRQSPEKGLEWVAEIRLKSNNYATHYAESLKGRFTISRDDSKSNVYLQMNNLRPEDTGIYYCTRDYYGSSFAYWGQGTLVTVSA
VL: DIVMTQAAFSNPVTLGTSASISCRSSKSLLHNIGITYLFWYLQKPGQSPQLLIYQMSKLASGVPDRFSGSGSGTDFTLRISRVEAEDVGIYYCAQNLELPPTFGSGTKLEIK
notes: Murine anti-γ2 DIII monoclonal antibody from hybridoma 4G1 (available from DAKO Cytomation); Biotinylated in some ELISAs; also called monoclonal antibody 4G1; γ2 DIII mAb 4G1
B2: mAb 6C12 (antibody, V domains shown)
VH: DVHLQESGPGLVKPSQSLSLTCTVTGYSITSDYAWNWIRQFPGNRLEWMGYITYSGGTNYNPSLKSRISFTRDTSKNQFFLQLNSVTTEDTATYYCANNFYGNFFDYWGQGTTLTVSS
VL: QIVLTQSPAIMSASPGEKVTMTCSASSSVSYIHWYQQKSGTSPKRWIYDTSKLASGVPARFSGSGSGTSYSLTISSMQAEDAATYYCQQWSSSPPTFGGGTKLEIK
notes: Murine anti-γ2 DIII monoclonal antibody from hybridoma 6C12, deposited at DSMZ as DSM ACC2653; Biotinylated in some ELISAs; also called monoclonal antibody 6C12; DSM ACC2653

Columns and labels:
[1] = biological target: T1, cyclic peptide X253 (Ln-5 residues …); assay: direct ELISA on coated cyclic peptides
Experimental: (§1) The identity of these peptides was verified by mass spectrometry. Solutions containing the five peptides, in an unpurified state, were individually subjected to direct ELISA analysis using standard techniques. Briefly, NUNC-IMMUNO plates were coated with 100 μl/well of 50 μg/ml peptide in carbonate buffer and allowed to sit overnight at +4° C. […] The plates were washed five times with PBS to remove unbound peptide and subjected to one hour blocking at room temperature by exposure with a washing/blocking buffer (0.05% Tween-20 in PBS (PBST)), which was thereafter removed. 100 ng of antibody (100 μl of solution containing an antibody solution at a concentration of 1 μg antibody/ml) for each of the three mAbs (4G1, 5D5, and 6C12) was added to the test wells. Dilution buffer was added to the control wells. The plates were incubated at room temperature for one hour, and thereafter washed four times in PBST.
(§2) 100 μl HRP-anti-mouse secondary Ab diluted in a dilution buffer at a ratio of 1:2000 was added to each well and the plates were incubated for one hour at room temperature, and thereafter washed 4 times with PBST. The plates were then developed with 100 μl TMB substrate for a period of 15-30 minutes in the dark (during which time the plates were monitored for color development). At an appropriate time, the reaction was stopped in each well with the addition of 4M H3PO4. Absorbance measurements were taken at 450 nm and 620 nm, ratios of absorbance determined, and the data evaluated. These experiments were performed in triplicate.

[2] = biological target: T2, cyclic peptide X254 (Ln-5 residues …); assay: direct ELISA on coated cyclic peptides
Experimental: as §1, §2

[3] = biological target: T3, cyclic peptide X255 (R+, Ln-5 residues …); assay: direct ELISA on coated cyclic peptides
Experimental: as §1, §2

[4] = biological target: T4, cyclic peptide X256 (Ln-5 residues …); assay: direct ELISA on coated cyclic peptides
Experimental: as §1, §2

[5] = biological target: T8, GST-γ2III fusion protein (glutathione S-transferase:γ2 DIII fragment fusion protein, human laminin γ2 amino … (human)); assay: SPR (BIAcore, RAMFc chip, HBS-EP buffer), mAb against GST-γ2DIII fusion protein
T8 construct: also called GST-γ2DIII; GST-γ2 DIII
Experimental: Resulting reflection/refractive index data obtained from these analyses (at 200 nM, 500 nM, 200 nM, 50 nM, and 20 nM) are presented individually in FIGS. 19A-19C.

[6] = biological target: T5, GST-γ2III-7 (a.a. residues 461-653); assay: direct ELISA, fusion proteins coated at 100 ng/well, A405 (Example 3, first experiment)
Experimental: (§3) The stepwise protocol set forth below was used for the ELISAs, which were performed with biotinylated mAb 4G1, mAb 5D5, and mAb 6C12 (GST, BSA, and plastic used as controls in the first experiment; GST and BSA only in the second experiment) and the γ2 DIII antigens individually (GST-γIII-20 was only tested in the second experiment; nonspecific biotinylated Ig was used as a control for the antibodies in both experiments). All incubations were performed at room temperature except step 1, below. 100 μl of reagents were used per well for incubations and 200 μl of PBST for washings unless otherwise mentioned. In addition, shaking the plate can be helpful for incubations.
ELISA plates were coated with 100 μl GST-γ2III chain fragments at concentration of 1 μg/ml in 0.1 M carbonate/bicarbonate buffer, pH 9, o/n at +4° C. (100 ng/well). The coated plates were washed three times with PBST. Non-specific binding was blocked with BSA-PBS incubation for 90 minutes (200 μl/well). Dilutions of reference standards, negative controls (quality controls), and sample were diluted in BSA-PBS and thereafter incubated for 1 h at room temperature. The plates were again washed three times with PBST. […] Absorbance was read with a microtitre plate reader at 405 nm after 30 min and after 60 min.

[7] = biological target: T9, BSA (bovine, UniProt P02769); assay: direct ELISA, fusion proteins coated at 100 ng/well, A405 (Example 3, second experiment)
T9 construct: also called bovine serum albumin
Experimental: as §3
(§4) ELISA plates were coated with 100 μl GST-γ2III chain fragments at concentration of 1 μg/ml in 0.1 M carbonate/bicarbonate buffer, pH 9, o/n at +4° C. (100 ng/well). The coated plates were washed three times with PBST. Non-specific binding was blocked with BSA-PBS incubation for 90 minutes (200 μl/well). Dilutions of reference standards, negative controls (quality controls), and sample were diluted in BSA-PBS and thereafter incubated for 1 h at room temperature. The plates were again washed three times with PBST. HRP-conjugated anti-mouse IgG secondary antibody was added to the wells (diluted 1:5000 in PBS) and allowed to incubate for 30 minutes. The plates were washed again three times with PBST. ABTS-peroxidase substrate was added. Substrates were prepared immediately before use: ABTS-stock (10×) was diluted with Citrate buffer (see Example 1); 2 μl of 30% hydrogen […] was added to each well and mixed. Substrate was added to the wells and incubated in dark conditions for 30 minutes. Absorbance was read with a microtitre plate reader at 405 nm after 30 min and after 60 min.

[8] = biological target: T6, GST-γ2III-20 (a.a. residues 461-534); assay: as above
Experimental: as §3, §4

[9] = biological target: T7, cyclic peptide X252 (Ln-5 residues …); assay: direct ELISA, peptide coated at 50 µg/ml (controls 5 µg/ml), antibody 100 ng/well, A450/620, mean of three ± SD
Experimental: as §1, with “The plates were incubated at room temperature for one hour, and thereafter washed four times in PBST.” left out
as §2, with “At an appropriate time, the reaction was stopped in each well with the addition of 4M H3PO4.” left out, “These experiments were performed in triplicate.” left out

T8 sequence (chain, as listed by the source limits assumed): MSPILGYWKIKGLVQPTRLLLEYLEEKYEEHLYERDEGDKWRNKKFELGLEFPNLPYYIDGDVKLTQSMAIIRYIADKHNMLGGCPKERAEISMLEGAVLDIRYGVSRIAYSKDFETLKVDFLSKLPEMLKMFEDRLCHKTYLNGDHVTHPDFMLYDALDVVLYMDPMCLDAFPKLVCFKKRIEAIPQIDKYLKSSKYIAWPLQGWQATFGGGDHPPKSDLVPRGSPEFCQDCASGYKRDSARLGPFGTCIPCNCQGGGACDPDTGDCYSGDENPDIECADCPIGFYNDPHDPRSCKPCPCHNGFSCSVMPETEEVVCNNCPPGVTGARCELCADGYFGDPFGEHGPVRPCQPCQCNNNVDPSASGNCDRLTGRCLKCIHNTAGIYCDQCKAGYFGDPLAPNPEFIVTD
T9 sequence (P02769 25-607 limits assumed): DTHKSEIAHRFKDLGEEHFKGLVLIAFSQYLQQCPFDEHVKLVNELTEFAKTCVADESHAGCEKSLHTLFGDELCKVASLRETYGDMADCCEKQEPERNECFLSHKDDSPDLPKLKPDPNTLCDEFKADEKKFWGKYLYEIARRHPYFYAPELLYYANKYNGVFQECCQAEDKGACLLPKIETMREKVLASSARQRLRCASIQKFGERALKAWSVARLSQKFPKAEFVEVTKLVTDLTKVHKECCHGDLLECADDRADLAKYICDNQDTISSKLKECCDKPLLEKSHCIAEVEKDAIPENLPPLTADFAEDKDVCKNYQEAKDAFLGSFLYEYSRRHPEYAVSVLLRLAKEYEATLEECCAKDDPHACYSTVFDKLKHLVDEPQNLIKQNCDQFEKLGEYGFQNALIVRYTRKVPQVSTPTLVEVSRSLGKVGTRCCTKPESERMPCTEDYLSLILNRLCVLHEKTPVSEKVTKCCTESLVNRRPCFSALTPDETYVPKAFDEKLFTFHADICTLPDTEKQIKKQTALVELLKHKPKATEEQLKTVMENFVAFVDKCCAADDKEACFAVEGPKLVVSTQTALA

Row | Binder | binding result [1] | binding result [2] | binding result [3] | binding result [4] | Kd [5] [nM] | koff [5] [s⁻¹] | kon [5] [M⁻¹ s⁻¹] | binding result [6] | binding result [7] | binding result [8] | binding result [9]
1 | B1 | no binding | no binding | no binding | no binding | 11.4 | 0.000106 | 9280 | no binding | no binding | no binding | 
2 | B2 |  |  |  |  | 23.3 | 0.000387 | 16600 |  | no binding |  | no binding (tested: 1 µg/ml)
